Assay: soluble on expression in E. coli; label from the status in PepcDB or PDB records

Sequence | soluble on expression in E. coli
MVKIVKAQFHTAGKLYDFGAGDLDLKPGDKIIVETERGRSIATVVTPPREYEEAHVPEGLKTAIRIAEPSDLASAARNDAREQEAHAFCLRKIKERGMEMKLVKVEYLFDGSKAIFYFTADGRVDFRELVKDLAHQFHTRIEMRQIGVRDESKMIGGIGICGRELCCSSFLREFEPVSVKMAKEQNLALNPTKISGQCGRLLCCLGYEYETYCSLKKCLPKCGKVVKCGSTEGEVIKQNIIEGTVFVKTDDDRIVELKGESIKPEDISERPKSPRREGGTREREKEPQSSSDNQRREKPRDREQKPGDDGEQRRERDTKKNQDQQRGERGNRDRRGGKGRDKDKKEPKLEHHHHHH | soluble
ERNKVESTLLDKVLFLETLVDTIPAPVFYKDREGIYRGCNDLFAKMILGIPKEKVAGCSIDEFLEKIPQELGNVYKRTDRQLLQRGGSLIYESRIMCSDGLLRQFLINKAAYRNLNGDMEGLVGVMLDIT | not soluble
MSLMQEETFYSVRMRASMNGSHEDGGKHISGGERLIPFHEMKHTVNALLEKGLSHSRGKPDFMQIQFEEVHESIKTIQPLPVHTNEVSCPEEGQKLARLLLEKEGVSRDVIEKAYEQIPEWSDVRGAVLFDIHTGKRMDQTKEKGVRVSRMDWPDANFEKWALHSHVPAHSRIKEALALASKVSRHPAVVAELCWSDDPDYITGYVAGKKMGYQRITAMKEYGTEEGCRVFFIDGSNDVNTYIHDLEKQPILIEWEEDHDSEGHHHHHH | soluble
MSLELTRYEIIKILMEYVTDEIVVCNIGIPSKELFKINDREKNFYMLGSMGLSSSIGHGLALSVNEKVIAIDGDGSVLMNMGSLATIGKTTPKDFLLLIVDNCAYGSTGNQETHSTCTDLYQVSKACGIDSIGVFNEEQLRDAVKLALSESGTKVIVAKARPHNENVPNINLVPTEIKHRFMNAIKKEGHHHHHH | not soluble
MAHHHHHHMDDGTRIPEDVEVFLRAARAKDTFKCAELLKETPSLINSVEAGGFSALHFAAFNGDLEMIRILLEFKPNLELRNYDNNTPLIMAAKGHQNSAIKLLVDAGAEVNLRTPTGGTAAHFAASMGYVDTVRCLVELGADVMHEDSETGTLLHWAAHSGDINCIGEMIYGFKIPINVKDAHGGTALFTALFMKKFEAVEFLLEHGADPRVMIEGDKSTPLHIAVEHANTECVKLLLVFGADPHVANTSGETPTSLAEKAKNNSALRELMKPMLSEEKRKEEAARFKTQGNKVFEGGENVKAAKFYTLAIHLDSTNHVFFSNRAAAYFNQRYYNGAYWDSLRCISLAPDWPKGYFRKAATELAMKKADEALQTCERGLRLDPKNKDLLTIKEEARRQRNK | soluble
MSIKFELIDVPIPQGTNVIIGQAHFIKTVEDLYEALVTSVPGVKFGIAFCEASGKRLVRHEANDEELRNLAIDLCKKIAAGHVFVIYIRNAWPINVLNAIKNVPEVVRIFAATANPLKVIVAEVEPERRGVVGVVDGHSPLGVETEKDREERKKFLREVVKYKL | soluble
MSLTRAQLEDMPQYQQVYSSINTWPSKKWYVGKGVHLSELLSLVGIKDDARLLKFTSQDGYTMTLTVKELLVDKRYYFPHFNDNKIGDGEGNIAGSSQGAELVEPIIALISVEGSNNPNYMNDLNTLVLMMGQRAVTEQTGNAFVKYLNKIEVLTSEVPKWDSPQANPGSGEVSAGTMIALSTARMDDDKIYYTTDGSTPNLNSPIYNWIAKRWWSARADILGTYNHPIGPINENTTIKAITIGPGKENSDVATFTYTVPVSKPASETSIVAPNEATNYPDQALEKPLQSEPKATLTDVQNHWAQKNINELIASGIAGGYPDSSFRPDNTITRAEFATMLVKAFNLQNQGGKVFADSEQHWAKEYISRATASGVVSGYDAENFGPDKLITREQMAVMISKAAKLVLKAEAMHFADSAGISEWAKEAVLAANQSGIVKGYPDNTIRPQGSATRAEAVTVIVNALTLKEGHHHHHH | not soluble
MEHPEGEDPTLLPPALAARALGVSPATLRRYAALWERLVGPLPRDPRGGRLWPKEALARLRAAREAHLREGLPLEEALARVQGDFPALALPSEGEALALLRALAERLERVEGELRALREENARLREALKALEPPRRRPWWRFWGH | soluble
MKREKKSFHLHMLSDATGETLISVGRAVASQYTMSQATEHIYPMIRNKTQLQRALDEIQQEPGIVLYTIIDKKIKILLRKRCEKIEIPCIDILHPVLNAFKSYLGIPTNLRVSAQHGLNADYFRRIEALDFTIEHDDGQSPNSLSDADVILVGISRTSKTPTSIYLANRGIKTANVPLIPGINLPDTLLGAKNALIIGLIASVERISHIRQNRNLGDDFSLESYTDRINISEELTYAKRICERFSWPVIDVTRRSIEETAAEIFELLSRFREGK | not soluble
MNSSRPYLVRALYEWIVDNDCTPHILVNAEFAGVKVPPGYASDGQIVLNVSPSAVRHLHMDNEAVSFEGRFGGVAQSLYIPALAVMAIYARENGQGMVFDLEQPGPVDDEPGDDDGGPSDEPPRPSGRPSLKVVK | not soluble
MMSAVERRMEIVNVVNQDGKARVEDLAARFDVSSVTIRSDLSFLEKNGYVVRSHGAAIPNTGVIAELTVHEKRHQNIGTKSSIGYAAAQLIENGDTVILDSGTTTREIASNLKSLEQAVVMTNGLDVAMELASASGIEVLMSGGVLRKKALSFSGSQAEASLKNYRFDKVFLGVDGFDLRSGITTHNEQEASLNRLMCDISEQVIAVADSTKFGKRSCHMIREFGNIDILVTDSDIPEEYLQGLREMKVEVIIVEKEK | not soluble
MHESVTANIENVKKVAHHIQKLTSIVPEIGIICGSGLGKLADGVKDKITIPYTKIPNFPQTSVVGHSGNLIFGTLSGRKVVVMQGRFHMYEGYSNDTVALPIRVMKLLGVKILMVSNAAGGLNRSLKLGDFVILKDHIYLPGLGLNNILVGPNQEAFGTRFPALSNAYDRDLRKLAVQVAEENGFGNLVHQGVYVMNGGPCYETPAECTMLLNMGCDVVGMSTIPEVVIARHCGIQVFAVSLVTNISVLDVESDLKPNHEEVLATGAQRAELMQSWFEKIIEKLPKD | soluble
MNSTYQLFIDVTSRKCILAIYKNFKIHTSIIVDTNNNLTDIIVEHLNNLLKITNLQYQDLEAIYLNTGPGSFTGIRVGAIVAKTICTIFNKIKLFINDSLNIIANGKNDVFVYLDAKGNKSYVITITNNIQNEYKIITNKELQNELKNTSLTIIDANQIDYHDLIYNLKFDNFKLTNILDFRLNYVKKPLNLEHHHHHH | not soluble
MGSDKIHHHHHHMKNSPLNGLNGLKAFLETKPKEYHKFDPSRFIQIYKDFKNAFFEIQAKVIHVVGTNGKGSTGRFLTLLLADQNFKVLHFTSPHVFEFRERFFLNGSVVGESVLENAHQQLQSHAFSSACSYFEYATLLAVMLAKDCDYLVLEAGLGGEFDSTNALKKTLSVFTPIDYDHKEFLGDSLESIAQTKLKAMGSLSIIAPQQELVLNAAQKIAKEKHAKLIVVQNEISKGVRDYIERYHLARFLAMNLEVALKAFETLLPCNKQEVLKNLKPLNLIGRCELLSPNILIDVGHNPHSAKALKEEIKRIFNAKIILIYNCYQDKDAFLVLEILKPVIKKVLILELHEERVIKLEKLKGILETLGLEYALFEDVEENENYLVYGSFLVANAFYKRYQEKRD | not soluble
MTDLSRMQGFADSAIPALEGRFFRPPLPEGYVPRSRLCQRLNEGLGGRLLLVCAPAGFGKSSLAVEFCQGLPDQWQNVWLGLSARDSEPGRFLERLLGSLQQFFPQLGAQAMGLLKMRQRHQPFAFEEWLDSLLDELAMHLMLSKPLLLVLDDYHLAQGPVLDRCLQFFLNHLPAGLVVMVTSRQRPDWHLARLRLTRQLLEINEQDLRLTQAESMAVLDRHSRSLDSEALQSLILRSEGWVAGLRFWLLAASEAGDESALSQALRGSEVLIREYLLEEVIDCLPADVQAFLYDTACLERFCAELCNAARDSHDSVEMLRYLQAHQVFLVPLDEQGRWFRYHHLFSDLLRARQTADAQTTRLHLNACRWFSAQGQLDEAVEQALRAGHLDVAANLVQNLSEEQLLAEQNVGMLLRWKMDLPDDLLTSTPRLIVLYAWALGLACQLDAAEELANQLSRFLPAPSATAQKSMLAQWLALSGIIARGRGDSEKTERYCREALLTLPQRRYGQRLVCLSTLANLAVAEGDLWQARVLNRDALELAQRVANPLFEALAHYDRARVLQARGEIIRALEEVRQGQQRLKGLSTVRLYAVRARLTLYEGYLLALRLQVDEGRALLLAGLAEARACRDISVLIGHCVIATMEGFAGRFAEAFAELAEAERLMHIWDVPPIYYLAMITLVKCELWLIQGRIDLAEAWLLRLTQTYNGGLGAAAPECHPQLSQHIELQRAVLERIQGDEVASEQRLQALEQRAQEVGAQLLRLIAMTQQIALLLNQGRQDEARTLLIRSVQASAGGALLPFRVLLAEHSQWLHEQLQLAPSCKLCNALREKFPACFKPAAPEPAHGSDCLSVRELGVLRLIAQGCSNQEISEQLFISLHTVKTHASHINSK | not soluble
SVRCYVEIVEKLPERRPDPATIEGCAQLKPNNYLLAWHTPFNEKGSGFGAATKAMCIGLRYWKPERLETLIEVSVECGRMTHNHPTGFLGSLCTALFVSFAAQGKPLVQWGRDMLRAVPLAEEYCRKTIRHTAEYQEHWFYFEAKWQFYLEERKISKDSENKAIFPDNYDAEEREKTYRKWSSEGRGGRRGHDAPMIAYDALLAAGNSWTELCHRAMFHGGESAATGTIAGCLFGLLYGLDLVPKGLYQDLEDKEKLEDLGAALYRLSTEEK | soluble
MNPLKAGDIAPKFSLPDQDGEQVNLTDFQGQRVLVYFYPKAMTPGCTVQACGLRDNMDELKKAGVDVLGISTDKPEKLSRFAEKELLNFTLLSDEDHQVCEQFGVWGEKSFMGKTYDGIHRISFLIDADGKIEHVFDDFKTSNHHDVVLNWLKEHA | soluble
MTTLNELKHGLEEAWESLAEGWHRLRERAAGALTRFKPGASVPAVPRRQEDFYLASPTWALLAGDVYEDDRKVVIRLEVPGMEKEDFNLELRGDLLIVQGEKRLERETSEGRYRVLQCAYGHFHRVIPLPAEVVADRVQASYRNGVLKIELPKAAARLPRNIEIPVRLEHHHHHH | not soluble
MENSEKLANSKEVIAYIAERFPKCFILEGEAKPLKIGIFQDLAERLSDDPKVSKTQLRAGLRQYTSSWRYLHGVKPGASRVDLDGNPCGELEEEHIEHAKATLEESKAKVATRRKEQAKKAREEAKAKKTARAATPPKRRPQPAAKKVEQPVETRALNADEITVGNNVSVNMGKGNMPATIVEINKDDVRIRLSNGLQMVVKAENLRS | not soluble
MDKYRLLLLGGGRGLFDIDEDFMHWIDEFIEEHSNSIEITIVTGKNKKLYDNLTHKKPLKNIKVLGFVNDMYNLIRECDLMLTKPGGATIFEAIQSQTPVLVKMPKVGQEIENAKFIIDKGLGMIYSDDLDLKNIFYKLVSNEFDSIINFMKKNLKEFKTVIHPEKIADYISELIDNHLEHHHHHH | not soluble
MGSDKIHHHHHHNTEQQLDSEVSEPTKTMRSQQHSDGAAAITHLTPLDLPLDSQGLTDEDSQQINSLLNQLHESAMSADWDTYFDLYHPDAAFIGTDATERWNMVHFRRYASPTQGWRYDLQARHLLQIEDVVVFDEQLYSPEYGISRGTGALVNTTKGWKIAQYHLSFPIPNAKAKRITTLIKQ | not soluble
MGSDKIHHHHHHVKIRLALPQDVDLLAMLEKKHLNDELASANMGLQGQAFSHSELSELVQRHWVVVAQVEQQIVGYVIAGRWGFFEHWPIYRTLLNRLGQLDWDGPKLTKTNSCQYGPIWVQQAYRGQGIFEALVSEIRRQVAPHFSYMLTFIAEDNERSFAAHSGKAHMQVVDFFTVSARDYYLMAAKTQA | not soluble
